The values below come from patent US20170335404A1 (REGENTS OF THE UNIVERSITY OF MINNESOTA, published 2017).

Bounds are passed on as bounds.

In experiment [1] the target is recombinant human Nectin-1 extracellular domain (human) (UniProt Q15223). Kind of experiment: cell-based or functional assay.
The target in experiment [2] is full-length Nectin-4 overexpressed on NIH:OVCAR5-N4-over cells, Q96NY8. Kind of experiment: cell-based or functional assay.
Experiment [3] addresses T1, recombinant human Nectin-1 extracellular domain (human, UniProt Q15223 31-355).
T1 sequence (looked up): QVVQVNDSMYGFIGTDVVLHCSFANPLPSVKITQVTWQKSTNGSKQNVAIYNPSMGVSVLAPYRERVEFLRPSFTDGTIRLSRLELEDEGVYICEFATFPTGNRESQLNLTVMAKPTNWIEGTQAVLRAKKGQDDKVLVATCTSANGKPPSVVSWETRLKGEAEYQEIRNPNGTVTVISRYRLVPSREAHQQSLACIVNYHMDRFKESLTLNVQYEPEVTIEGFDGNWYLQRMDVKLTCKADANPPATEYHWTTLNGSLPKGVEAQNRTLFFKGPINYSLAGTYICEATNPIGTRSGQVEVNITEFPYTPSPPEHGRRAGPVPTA
Kind of experiment: cell-based or functional assay.

Experiment [4] deals with T2, Nectin-4 natively expressed on NIH:OVCAR5 parental cells (human, UniProt Q96NY8 32-510).
T2 construct: whole, on cells; The cells also express Nectin-1; also called NIH:OVCAR-5 cells
T2 sequence (looked up): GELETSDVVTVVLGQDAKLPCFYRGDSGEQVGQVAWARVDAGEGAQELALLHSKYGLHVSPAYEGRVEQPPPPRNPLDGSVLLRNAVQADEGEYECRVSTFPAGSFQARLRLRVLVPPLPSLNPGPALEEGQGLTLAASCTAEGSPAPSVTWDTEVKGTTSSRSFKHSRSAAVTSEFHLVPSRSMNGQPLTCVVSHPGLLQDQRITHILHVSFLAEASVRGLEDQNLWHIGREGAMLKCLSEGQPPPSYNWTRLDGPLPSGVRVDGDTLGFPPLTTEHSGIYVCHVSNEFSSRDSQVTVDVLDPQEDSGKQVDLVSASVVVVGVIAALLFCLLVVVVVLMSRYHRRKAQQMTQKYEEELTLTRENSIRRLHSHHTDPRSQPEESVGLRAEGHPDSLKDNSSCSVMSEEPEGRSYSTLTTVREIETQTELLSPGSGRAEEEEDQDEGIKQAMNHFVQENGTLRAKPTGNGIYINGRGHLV
Kind of experiment: cell adhesion assay, NIH:OVCAR5 parental cells on coated microtiter plates. The method, then:
Black, clear-bottom 96-well microtiter plates (Corning, Imported Costar, Corning, N.Y.) were coated with recombinant human Nectin-1 extracellular domain (R&D Systems), recombinant human Nectin-4 extracellular domain (R&D Systems), mouse laminin (Invitrogen™), or bovine serum albumin (BSA; Prohumin Diagnostic Grade, MilliPore) diluted in PBS. Covered plates were incubated overnight at 37° C. in a humidified incubator. After washing with PBS plus Ca²⁺/Mg²⁺ containing 2 mg/ml ovalbumin (Sigma-Aldrich), the plates were blocked for 1 h at 37° C. with 1% BSA in PBS without Ca²⁺/Mg²⁺. Confluent monolayers of NIH:OVCAR5 cells or NIH:OVCAR5-N4-over cells were detached with Accutase, and then filtered through a 40 μm cell strainer (BD Biosciences, San Jose, Calif.) to remove cell aggregates. The single cells were stained with CellTracker Green CMFDA (5-chlorornethylfluorescein diacetate; Invitrogen™) according to the manufacturer's protocol. After washing the plate, 30,000 cells were added to each well in 50 μl of RPMI 1640 media containing 2 mg/ml ovalbumin and allowed to adhere for 15-60 min at 37° C. Plates were vigorously washed four times and read in a BioTek Synergy fluorescent microplate reader (BioTek, Winooski, Va.). Experiments were conducted in triplicate. […]

Consider “mouse monoclonal antibody against human Nectin-1, R&D Systems MAB2880, clone #610835”, for which the inhibition of cell adhesion to Nectin-1 in experiment [1] was 60%.
As for H-NWYLQRMDVKLTCK-NH2 [N1-P20], in experiment [2], the inhibition of adhesion of NIH:OVCAR5-N4-over cells to Nectin-1 is over 50% and the inhibition of cell adhesion came out at 100%.
On to H-QARLRLRVLVPPLP-NH2 [N4-P10], for which, in experiment [3], the “inhibition of adhesion of NIH:OVCAR5-N4-over cells to Nectin-1” value is ≥ 50 >=50 of the printed range 50-100 %.
The same measure, in the same setting: the value for H-QRITHILHVSFLAE-NH2 [N4-P18] was ≥ 50 >=50 of the printed range 50-100 %; that for H-WTRLDGPLPSGVRV-NH2 [N4-P22] was ≥ 50 >=50 of the printed range 50-100 %.
H-ACIVNYHMDRFKES-NH2 [N1-P17]: in experiment [2], the inhibition of adhesion of NIH:OVCAR5-N4-over cells to Nectin-1 is over 50%.
Regarding H-TGNGIYINGRGHLV-NH2 [N4-P29], the “inhibition of adhesion of NIH:OVCAR5-N4-over cells to Nectin-1” value in experiment [3] is ≥ 50 >=50 of the printed range 50-100 %.
In experiment [2], H-VNITEFPYTPSPPEHGRRA-NH2 [N1-P26] had an inhibition of adhesion of NIH:OVCAR5-N4-over cells to Nectin-1 of over 50%.
As to H-HSQVVQVNDSMYGF-NH2 [N1-P1], the inhibition of adhesion of NIH:OVCAR5-N4-over cells to Nectin-1 in experiment [2] was over 50%.

B1: recombinant human Nectin-4 extracellular domain (receptor, UniProt Q96NY8 32-349, looked up)
chain: GELETSDVVTVVLGQDAKLPCFYRGDSGEQVGQVAWARVDAGEGAQELALLHSKYGLHVSPAYEGRVEQPPPPRNPLDGSVLLRNAVQADEGEYECRVSTFPAGSFQARLRLRVLVPPLPSLNPGPALEEGQGLTLAASCTAEGSPAPSVTWDTEVKGTTSSRSFKHSRSAAVTSEFHLVPSRSMNGQPLTCVVSHPGLLQDQRITHILHVSFLAEASVRGLEDQNLWHIGREGAMLKCLSEGQPPPSYNWTRLDGPLPSGVRVDGDTLGFPPLTTEHSGIYVCHVSNEFSSRDSQVTVDVLDPQEDSGKQVDLVSAS
notes: extracellular domain; Bought reagent, coated on microtiter plates; also called recombinant Nectin-4
Turning to B1, the binding result in experiment [4] was “no binding (tested: 1 µg/well, up to 1 h)”.
